Source: patent US20250312444A1 (BEIJING TUO JIE BIOPHARMACEUTICAL, published 2025)

How the values were obtained:
[1] = target: human serum albumin (HSA) (human); experiment: SPR Biacore T200, fusion protein captured by anti-VHH antibody, albumin as analyte
Procedure: (§1) Coupling of an anti-VHH antibody (MonoRab™ Rabbit Anti-Camelid VHH Cocktail, Genescript, Cat No. A02014) to an S series CM5 sensor chip (GE, Cat No. 29-1049-88) was performed using an amino coupling kit (GE, Cat No. BR-1000-50). The antibody was diluted to 10 μg/mL with 10 mM sodium acetate (pH 4.5) (GE, Cat No. BR-1003-50). After the CM5 chip was activated with EDC/NHS, the diluted anti-VHH antibody was flowed over the chip to reach a surface response value of about 5000 RU, and then the chip was blocked with ethanolamine for later use.
(§2) The albumin from each species was serially diluted in a gradient with 1XHBS-EP (10 mM HEPES, pH 7.4, 150 mM NaCl, 3 mM EDTA, 0.05% Surfactant P20). The test fusion protein molecule was captured using the anti-VHH antibody-coupled chip, with a response value of about 30 RU. Then, different concentrations of serum albumin were flowed over the surface of the chip for 3 min at a flow rate of 50 μL/min, with a dissociation time of 1-10 min (the dissociation time varied depending on the species of albumin). After the end of each cycle, the chip was regenerated using 10 mM glycine-hydrochloric acid (pH 1.5) (GE, Cat No. BR-1003-54). The reaction signals were detected in real-time using Biacore T200 (GE) to obtain the association and dissociation curves, and the data obtained were fitted with a Langmuir 1:1 binding model using the BIAevaluation version 4.1 software at appropriate concentration points to obtain the affinity values.

rat serum albumin = target: T1, rat serum albumin (rat); experiment: as above
T1 chain: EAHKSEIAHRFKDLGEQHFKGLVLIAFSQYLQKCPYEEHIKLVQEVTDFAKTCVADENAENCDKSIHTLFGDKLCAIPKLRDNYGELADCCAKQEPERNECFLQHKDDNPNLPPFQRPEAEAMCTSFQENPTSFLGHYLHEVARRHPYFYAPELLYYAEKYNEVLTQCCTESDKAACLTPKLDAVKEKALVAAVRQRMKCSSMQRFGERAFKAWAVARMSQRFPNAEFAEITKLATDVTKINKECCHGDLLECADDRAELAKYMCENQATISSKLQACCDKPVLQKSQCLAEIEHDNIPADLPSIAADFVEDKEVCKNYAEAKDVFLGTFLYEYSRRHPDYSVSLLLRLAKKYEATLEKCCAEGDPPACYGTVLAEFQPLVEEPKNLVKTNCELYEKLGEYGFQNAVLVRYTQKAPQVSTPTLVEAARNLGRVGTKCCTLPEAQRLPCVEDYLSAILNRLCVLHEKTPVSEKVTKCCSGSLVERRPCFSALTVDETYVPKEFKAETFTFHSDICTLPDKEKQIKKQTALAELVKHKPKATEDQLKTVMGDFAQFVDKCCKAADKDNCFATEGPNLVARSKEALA
Procedure: as §1, §2

human RXFP1 receptor = target: T2, human RXFP1 receptor (human, UniProt Q9HBX9 1-757); experiment: cell-based or functional assay
T2 sequence (looked up): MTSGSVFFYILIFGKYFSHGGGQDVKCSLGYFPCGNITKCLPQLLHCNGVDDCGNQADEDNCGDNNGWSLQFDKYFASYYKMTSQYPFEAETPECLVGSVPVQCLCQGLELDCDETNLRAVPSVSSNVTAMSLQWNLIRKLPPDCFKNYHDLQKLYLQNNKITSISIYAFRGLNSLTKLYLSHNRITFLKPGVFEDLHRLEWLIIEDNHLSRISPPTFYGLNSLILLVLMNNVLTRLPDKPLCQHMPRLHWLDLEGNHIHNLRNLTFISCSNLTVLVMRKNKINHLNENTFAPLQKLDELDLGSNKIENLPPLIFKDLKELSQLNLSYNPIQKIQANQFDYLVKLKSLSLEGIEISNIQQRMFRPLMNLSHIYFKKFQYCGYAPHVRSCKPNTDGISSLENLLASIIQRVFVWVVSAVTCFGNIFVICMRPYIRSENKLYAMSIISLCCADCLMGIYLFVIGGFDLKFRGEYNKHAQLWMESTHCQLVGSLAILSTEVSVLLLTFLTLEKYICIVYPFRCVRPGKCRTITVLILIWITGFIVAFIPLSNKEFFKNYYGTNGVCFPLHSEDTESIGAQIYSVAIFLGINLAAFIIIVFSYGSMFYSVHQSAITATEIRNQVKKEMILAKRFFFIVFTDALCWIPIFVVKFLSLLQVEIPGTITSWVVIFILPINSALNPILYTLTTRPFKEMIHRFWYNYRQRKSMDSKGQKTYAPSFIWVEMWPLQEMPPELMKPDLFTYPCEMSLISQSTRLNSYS

rat RXFP1 receptor = target: T3, rat RXFP1 receptor (rat, UniProt Q6R6I6 1-758); experiment: cell-based or functional assay
T3 sequence (looked up): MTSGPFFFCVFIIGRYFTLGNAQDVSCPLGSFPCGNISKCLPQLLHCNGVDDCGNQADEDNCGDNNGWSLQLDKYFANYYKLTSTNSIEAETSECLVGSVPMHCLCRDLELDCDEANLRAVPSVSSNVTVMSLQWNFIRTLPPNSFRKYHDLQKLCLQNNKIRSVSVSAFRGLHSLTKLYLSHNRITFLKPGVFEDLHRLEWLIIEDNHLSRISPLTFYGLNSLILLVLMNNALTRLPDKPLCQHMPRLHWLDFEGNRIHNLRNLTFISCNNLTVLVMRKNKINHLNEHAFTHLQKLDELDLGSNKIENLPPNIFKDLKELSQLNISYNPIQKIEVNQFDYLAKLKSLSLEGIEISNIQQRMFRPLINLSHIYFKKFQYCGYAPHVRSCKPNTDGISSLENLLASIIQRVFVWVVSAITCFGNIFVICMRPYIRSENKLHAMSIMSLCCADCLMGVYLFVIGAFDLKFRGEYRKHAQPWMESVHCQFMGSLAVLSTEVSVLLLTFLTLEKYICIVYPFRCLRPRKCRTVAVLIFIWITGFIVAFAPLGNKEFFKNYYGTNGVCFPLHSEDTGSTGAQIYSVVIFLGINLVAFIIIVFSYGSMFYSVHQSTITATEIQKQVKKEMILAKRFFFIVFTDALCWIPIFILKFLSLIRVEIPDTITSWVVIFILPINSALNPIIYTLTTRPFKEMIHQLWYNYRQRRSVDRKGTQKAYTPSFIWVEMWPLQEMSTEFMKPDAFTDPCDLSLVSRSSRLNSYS

Kd [1]: 20.2 nM | koff [1]: 0.0011 s⁻¹ | kon [1]: 54500 M⁻¹ s⁻¹ | Kd (rat serum albumin): 156 nM | koff (rat serum albumin): 0.00581 s⁻¹ | kon (rat serum albumin): 37200 M⁻¹ s⁻¹ | EC50 (nM), cAMP production in CHO-K1 cells with receptor overexpression (human RXFP1 receptor): 28.3 nM | EC50 (nM), cAMP production in CHO-K1 cells with receptor overexpression (rat RXFP1 receptor): 21.1 nM
B1: 0051 (other)
chain: EVQLLESGGGLVQPGGSLRLSCAASGFTFLTSCMGWFRQAPGKEREGVSSIYTVGGSTFYTNSVKGRFTISRDNSKNTLYLQMNSLRAEDTAVYYCAAGSPARCRLRDPTTFDYWGQGTLVTVSSGGGGQGGGGQGGGGQGGGGQGGGGQSWMEEVIKLCGRELVRAQIAICGMSTWSGGGSGGSGGGQLYSALANKCCHVGCTKRSLARFC
notes: Single-chain fusion: anti-HSA VHH, linker, relaxin-2 B chain, linker, relaxin-2 A chain; also called fusion protein 0051; molecule 0051
